The record followed here is the supplement of paper PMC11908140.

To fix the notation:
B1: library; numbered along this chain (parent)
chain: MRKPRAAVGSGHRKQAASQEGRQKHAKNNSQAKPSACDGLARQPEEVVLQASVSSYHLFRDVAEVTAFRGSLLSWYDQEKRDLPWRRRAEDEMDLDRRAYAVWVSEVMLQQTQVATVINYYTGWMQKWPTLQDLASASLEEVNQLWAGLGYYSRGRRLQEGARKVVEELGGHMPRTAETLQQLLPGVGRYTAGAIASIAFGQATGVVDGNVARVLCRVRAIGADPSSTLVSQQLWGLAQQLVDPARPGDFNQAAMELGATVCTPQRPLCSQCPVESLCRARQRVEQEQLLASGSLSGSPDVEECAPNTGQCHLCLPPSEPWDQTLGVVNFPRKASRKPPREESSATCVLEQPGALGAQILLVQRPNSGLLAGLWEFPSVTWEPSEQLQRKALLQELQRWAGPLPATHLRHLGEVVHTFSHIKLTYQVYGLALEGQTPVTTVPPGARWLTQEEFHTAAVSTAMKKVFRVYQGQQPGTCMGSKRSQVSSPCSRKKPRMGQQVLDNFFRSHISTDAHSLNSAAQ

This data set covers variants of B1. Kind of data set: 8OG:A repair function score (normalized; synonymous = 0, nonsense = -1) (normalized log-likelihood score); higher = more repair activity (WT-like). The note with it: with 8OG:A DNA repair reporter (GFP) in HEK-293 MUTYH KO cells. Here is the method:
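Saturation mutagenesis (NNN codon scan) of the MUTYH cDNA (521-aa nuclear isoform NM_001048174.1 / NP_001041639), stably expressed under doxycycline induction in HEK-293 MUTYH knockout cells. Cells were co-transfected with an 8OG:A-bearing GFP repair reporter plus mCherry and sorted 72 h later into GFP+ and GFP− bins, three replicates per tile. The Rosace log2 enrichment (GFP+ vs GFP−) was converted per tile to a normalized function score with synonymous variants centered at 0 and nonsense variants (codons 1-471) at -1; low-abundance variants were removed.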
For the variant MRKPRAAVGSGHRKQAASQEGRQKHAKNNSQAKPSACDGLARQPEEVVLQASVSSYHLFRDVAEVTAFRGSLLSWYDQEKRDLPWRRRAEDEMDLDRRAYAVWVSEVMLQQTQVATVINYYTGWMQKWPTLQDLASASLEEVNQLWAGLGYYSRGRRLQEGARKVVEELGGHMPRTAETLQQLLPGVGRYTAGAIASIAFGQATGVVDGNVARVLCRVRAIGADPSSTLVSQQLWGLAQQLVDPARPGDFNQAAMELGATVCTPQRPLCSQCPVESLCRARQRVEQEQLLASGSLSGSPDVEECAPNTGQCHLCLPPSEPWDQTLGVVNFPRKASRKPPREESSANCVLEQPGALGAQILLVQRPNSGLLAGLWEFPSVTWEPSEQLQRKALLQELQRWAGPLPATHLRHLGEVVHTFSHIKLTYQVYGLALEGQTPVTTVPPGARWLTQEEFHTAAVSTAMKKVFRVYQGQQPGTCMGSKRSQVSSPCSRKKPRMGQQVLDNFFRSHISTDAHSLNSAAQ [T346N], the “8OG:A repair function score” value is -0.262.
MRKPRAAVGSGHRKQAASQEGRQKHAKNNSQAKPSACDGLARQPEEVVLQASVSSYHLFRDVAEVTAFRGSLLSWYDQEKRDLPWRRRAEDAMDLDRRAYAVWVSEVMLQQTQVATVINYYTGWMQKWPTLQDLASASLEEVNQLWAGLGYYSRGRRLQEGARKVVEELGGHMPRTAETLQQLLPGVGRYTAGAIASIAFGQATGVVDGNVARVLCRVRAIGADPSSTLVSQQLWGLAQQLVDPARPGDFNQAAMELGATVCTPQRPLCSQCPVESLCRARQRVEQEQLLASGSLSGSPDVEECAPNTGQCHLCLPPSEPWDQTLGVVNFPRKASRKPPREESSATCVLEQPGALGAQILLVQRPNSGLLAGLWEFPSVTWEPSEQLQRKALLQELQRWAGPLPATHLRHLGEVVHTFSHIKLTYQVYGLALEGQTPVTTVPPGARWLTQEEFHTAAVSTAMKKVFRVYQGQQPGTCMGSKRSQVSSPCSRKKPRMGQQVLDNFFRSHISTDAHSLNSAAQ [E92A]: the “8OG:A repair function score” value is -0.0671.
With MRKPRAAVGSGHRKQAASQEGRQKHAKNNSQAKPSACDGLARQPEEVVLQASVSSYHLFRDVAEVTAFRGSLLSWYDQEKRDLPWRRRAEDEMDLDRRAYAVWVSEVMLQQTQVATVINYYTGWMQKWPTLQDLASASLEEVNQLWAGLGYYSRGRRLQEGARKVVEELGGHMPRTAETLQQLLPGVGRYTAGAIASIAFGQATGVVDGNVARVLCRVRAIGADPSSTLVSQQLWGLAQQLVDPARPGDFNQAAMELGATVCTPQRPLCSQCPVESLCRARQRVQQEQLLASGSLSGSPDVEECAPNTGQCHLCLPPSEPWDQTLGVVNFPRKASRKPPREESSATCVLEQPGALGAQILLVQRPNSGLLAGLWEFPSVTWEPSEQLQRKALLQELQRWAGPLPATHLRHLGEVVHTFSHIKLTYQVYGLALEGQTPVTTVPPGARWLTQEEFHTAAVSTAMKKVFRVYQGQQPGTCMGSKRSQVSSPCSRKKPRMGQQVLDNFFRSHISTDAHSLNSAAQ [E285Q], the “8OG:A repair function score” value was -0.00364.
Then MRKPRAAVGSGHRKQAASQEGRQKHAKNNSQAKPSACDGLARQPEEVVLQASVSSYHLFRDVAEVTAFRGSLLSWYDQEKRDLPWRRRAEDEMDLDRRAYAVWVSEVMLQQTQVATVINYYTGWMQKWPTLQDLASASLEEVNQLWAGLGYYSRGRRLQEGARKVVEELGGHMPRTAETLQQLLPGVGRYTAGAIASIAFGQATGVVDGNVARVLCRVRAIGADPSSTLVSQQLWGLAQQLVDPARPGDFNQAAMELGATVCTPQRPLCSQCPVESLCRARQRVEQEQLLASGSLSGSPDVEECAPNTGQCHLCLPPSEPWDQTLGVVNFPRKLSRKPPREESSATCVLEQPGALGAQILLVQRPNSGLLAGLWEFPSVTWEPSEQLQRKALLQELQRWAGPLPATHLRHLGEVVHTFSHIKLTYQVYGLALEGQTPVTTVPPGARWLTQEEFHTAAVSTAMKKVFRVYQGQQPGTCMGSKRSQVSSPCSRKKPRMGQQVLDNFFRSHISTDAHSLNSAAQ [A334L], with -0.0917; and MRKPRAAVGSGHRKQAASQEGRQKHAKNNSQAKPSACDGLARQPEEVVWQASVSSYHLFRDVAEVTAFRGSLLSWYDQEKRDLPWRRRAEDEMDLDRRAYAVWVSEVMLQQTQVATVINYYTGWMQKWPTLQDLASASLEEVNQLWAGLGYYSRGRRLQEGARKVVEELGGHMPRTAETLQQLLPGVGRYTAGAIASIAFGQATGVVDGNVARVLCRVRAIGADPSSTLVSQQLWGLAQQLVDPARPGDFNQAAMELGATVCTPQRPLCSQCPVESLCRARQRVEQEQLLASGSLSGSPDVEECAPNTGQCHLCLPPSEPWDQTLGVVNFPRKASRKPPREESSATCVLEQPGALGAQILLVQRPNSGLLAGLWEFPSVTWEPSEQLQRKALLQELQRWAGPLPATHLRHLGEVVHTFSHIKLTYQVYGLALEGQTPVTTVPPGARWLTQEEFHTAAVSTAMKKVFRVYQGQQPGTCMGSKRSQVSSPCSRKKPRMGQQVLDNFFRSHISTDAHSLNSAAQ [L49W], with -0.109; and MRKPRAAVGSGHRKQAASQEGRQKHAKNNSQAKPSACDGLARQPEEVVLQASVSSYHLFRDVAEVTAFRGSLLSWYDQEKRDLPWRRRAEDEMDLDRRAYAVWVSEVMLQQTQVATVINYYTGWMQKWPTLQDLASASLEEVNQLWAGLGYYSRGRRLQEGARKVVEELGGHMPRTAETLQQLLPGVGRYTAGAIASIAFGQATGVVDGNVARVLCRVRAIGADPSSTLVSQQLWGLAQQLVDPARPGDFNQAAMELGATVCTPQRPLCSQCPVESLCRARQRVEQEQLLASGSLSGSPDVEECAPNTGQCHLCLPPSEPWDQTLGVVNFPRKASRKPPREESSATCVLEQPGALGAQILLVQRPNSGLLAGLWEFPSVTWEPSEQLQRKALLGELQRWAGPLPATHLRHLGEVVHTFSHIKLTYQVYGLALEGQTPVTTVPPGARWLTQEEFHTAAVSTAMKKVFRVYQGQQPGTCMGSKRSQVSSPCSRKKPRMGQQVLDNFFRSHISTDAHSLNSAAQ [Q394G], with 0.266.
The value for MRKPRAAVGSGHRKQAASQEGRQKHAKNNSQAKPSACDGLARQPEEVVLQASVSSYHLFRDVAEVTAFRGSLLSWYDQEKRDLPWRRRAEDEMDLDRRAYAVWVSEVMLQQTQVATVINYYTGWMQKWPTLQDLASASLEEVNQLWAGLGYYSRGRRLQEGARKVVEELGGHMPRTAETLQQLLPGVGRYTAGAIASIAFGQATGVVDGNVARVLCRVRAIGADPSSTLVSQQLWGLAQQLVDPARPGDFNQAAMEPGATVCTPQRPLCSQCPVESLCRARQRVEQEQLLASGSLSGSPDVEECAPNTGQCHLCLPPSEPWDQTLGVVNFPRKASRKPPREESSATCVLEQPGALGAQILLVQRPNSGLLAGLWEFPSVTWEPSEQLQRKALLQELQRWAGPLPATHLRHLGEVVHTFSHIKLTYQVYGLALEGQTPVTTVPPGARWLTQEEFHTAAVSTAMKKVFRVYQGQQPGTCMGSKRSQVSSPCSRKKPRMGQQVLDNFFRSHISTDAHSLNSAAQ [L257P] was -1; that for MRKPRAAVGSGHRKQAASQEGRQKHAKNNSQAKPSACDGLARQPEEVVLQASVSSYHLFRDVAEVTAFRGSLLSWYDQEKRDLPWRRRAEDEMDLDRRAYAVWVSEVMLQQTQVATVINYYTGWMQKWPTLQDLASASLEEVNQLWAGLGYYSRGRRLQEGARKVVEELGGHMPRTAETLQQLLPGVGRYTAGAIASIAFGQATGVVDGNVARVLCRVRAIGADPSSTLVSQQLWGLAQQLVDPARPGDFNQAAMELGATVCTPQRPLCSQCPVESLCRARQRVEQEQLLASGSLSGSPDVEECAPNTGQCHLCLPPSEPWDQTLGVVNFPRKASRKPPREESSATCVLEQPGALGAQILLVQRPNSGLLAGLWEFPSVTWEPSEQLQRKALLQELQRWAGPLPATHLRHLGEVVHTFSHIKLTYQVYALALEGQTPVTTVPPGARWLTQEEFHTAAVSTAMKKVFRVYQGQQPGTCMGSKRSQVSSPCSRKKPRMGQQVLDNFFRSHISTDAHSLNSAAQ [G429A] was 0.031.
The value for MRKPRAAVGSGHRKQAASQEGRQKHAKNNSQAKPSACDGLARQPEEVVLQASVSSYHLFRDVAEVTAFRGSLLSWYDQEKRDLPWRRRAEDEMDLDRRAYAVWVSEVMLQQTQVATVINYYTGWMQKWPTLQDLASASLEEVNQLWAGLGYYSRGRRLQEGARKVVEELGGHMPRTAETLQQLLPGVGRYTAGAIASIAFGQATHVVDGNVARVLCRVRAIGADPSSTLVSQQLWGLAQQLVDPARPGDFNQAAMELGATVCTPQRPLCSQCPVESLCRARQRVEQEQLLASGSLSGSPDVEECAPNTGQCHLCLPPSEPWDQTLGVVNFPRKASRKPPREESSATCVLEQPGALGAQILLVQRPNSGLLAGLWEFPSVTWEPSEQLQRKALLQELQRWAGPLPATHLRHLGEVVHTFSHIKLTYQVYGLALEGQTPVTTVPPGARWLTQEEFHTAAVSTAMKKVFRVYQGQQPGTCMGSKRSQVSSPCSRKKPRMGQQVLDNFFRSHISTDAHSLNSAAQ [G205H] was -0.8.
Take MRKPRAAVGSGHRKQAASQEGRQKHAKNNSQAKPSACDGLARQPEEVVLQASVSSYHLFRDVAEVTAFRGSLLSWYDQEKRDLPWRMRAEDEMDLDRRAYAVWVSEVMLQQTQVATVINYYTGWMQKWPTLQDLASASLEEVNQLWAGLGYYSRGRRLQEGARKVVEELGGHMPRTAETLQQLLPGVGRYTAGAIASIAFGQATGVVDGNVARVLCRVRAIGADPSSTLVSQQLWGLAQQLVDPARPGDFNQAAMELGATVCTPQRPLCSQCPVESLCRARQRVEQEQLLASGSLSGSPDVEECAPNTGQCHLCLPPSEPWDQTLGVVNFPRKASRKPPREESSATCVLEQPGALGAQILLVQRPNSGLLAGLWEFPSVTWEPSEQLQRKALLQELQRWAGPLPATHLRHLGEVVHTFSHIKLTYQVYGLALEGQTPVTTVPPGARWLTQEEFHTAAVSTAMKKVFRVYQGQQPGTCMGSKRSQVSSPCSRKKPRMGQQVLDNFFRSHISTDAHSLNSAAQ [R87M]: the “8OG:A repair function score” value is -0.0864.
Then MRKPRAAVGSGHRKQAASQEGRQKHAKNNSQAKPSACDGLARQPEEVVLQASVSSYHLFRDVAEVTAFRGSLLSWYDQEKRDLPWRRRAEDEMDLDRRAYAVWVSEVMLQQTQVATVINYYTGWMQKWPTLQDLASASLEEVNQLWAGLGYYSRGRRLQEGARKVVEELGGHMPRTAETLQQLLPGVGRYTAGAIASIAFGQATGVVDGNVARVLCRVRAIGADPSSTLVSQQLWGLAQQLVDPARPGDFNQAAMELGATVCTPQRPLCSQCPVESLCRARQRVEQEQLLASGSLSGSPDVEECAPNTGQCHLCLPPSEPWDQTLGVVNFPRKASRKPPREESSATCVLEQPGALGAQILLVQRPNSGLLAGLWEFPSVTWEPSEQLQRKALLQELQRWAGPLPATHLRHLGEVVHTFSHIKLTYQVYGLALEGQTPVTTVPPGARWLTQEEFHTAAVSTAMKKVFRVYQGQQPGTCMGSKRSQVSSPCSRKKPRMGQQVLDNFFRSHISTDAHSLNSYAQ [A519Y], with 0.0154; and MRKPRAAVGSGHRKQAASQEGRQKHAKNNSQAKPSACDGLARQPEEVVLQASVSSYHLFRDVAEVTAFRGSLLSWYDQEKRDLPWRRRAEDEMDLDRRAYAVWVSEVMLQQTQVATVINYYTGWMQKWPTLQDLASASLEEVNQLWAGLGYYSRGRRLQEGARKVVEELGGHMPRTAETLQQLLPGVGRYTAGAIASIAFGQATGVVDGNVARVLCRVRAIGADPSSTLVSQQLWGLAQQLVDPARPGDFNQAAMELGATVCTPQRPLCSQCPVESLCRARQRVEQEQLLASGSLSGSPDVEECAPNTGQCHLCLPPSEPWDQTLGVVNFPRKASRKPPREESSATCVLEQPGALGAQILLVQRPNSGLLAGLWEFPSVTAEPSEQLQRKALLQELQRWAGPLPATHLRHLGEVVHTFSHIKLTYQVYGLALEGQTPVTTVPPGARWLTQEEFHTAAVSTAMKKVFRVYQGQQPGTCMGSKRSQVSSPCSRKKPRMGQQVLDNFFRSHISTDAHSLNSAAQ [W381A], with 0.0585.
